How the values were obtained:
[1] = biological target: the molecule itself; assay: SEC-MALS; SEC-MALLS, Superdex 75 10/300 GL, 20 mM Tris pH 8.0, 50 mM NaCl; 1 ml injected at 1.5 mg/ml
[2] = biological target: the molecule itself; assay: crystal structure; crystals grown at 20°C in 35% MPD, 0.1 M sodium acetate pH 4.5, 20% glycerol, 20 mM NaF; four chains in the asymmetric unit; 2.1 Å
[3] = biological target: the molecule itself; assay: SEC-MALS; SEC-MALLS, Superdex 200 10/300, 20 mM Tris pH 8.0, 100 mM NaCl; injected at 0.7 mg/ml

Protein	stoichiometry N [1]	stoichiometry N [2]	stoichiometry N [3]
MuRF1^CC (coiled-coil-prone segment of human MuRF1, residues 214-271) (domain or fragment, MuRF1 (E3 ubiquitin ligase, TRIM family), human, UniProtKB Q969Q1, residues 214-271 (D214 to G271); Cloned into pETM-11 (His6-tag and TEV site N-terminal); also called CC^214-271; MuRF1 CC segment; not shown: His6, N-terminal, cleaved) GAMDTLYAILDEKKSELLQRITQEQEKKLSFIEALIQQYQEQLDKSTKLVETAIQSLDEPG	~2	4	–
MuRF1^B2|CC|COS (B2 box, helix H1 and COS-box of MuRF1, residues 114-327, C298S) (domain or fragment) LQKGSHPMCKEHEDEKINIYCLTCEVPTCSMCKVFGIHKACEVAPLQSVFQGQKTELNNCISMLVAGNDRVQTIITQLEDSRRVTKENSHQVKEELSQKFDTLYAILDEKKSELLQRITQEQEKKLSFIEALIQQYQEQLDKSTKLVETAIQSLDEPGGATFLLTAKQLIKSIVEASKGSQLGKTEQGFENMDFFTLDLEHIADALRAIDFGTD	–	–	2
